The record followed here is patent publication US20070243198A1 (ERA BIOTECH S A, published 2007).

For experiment [1], the target named is human EGF receptor on MDA-MB231 breast cancer cells (human) (UniProt P00533). Kind of experiment: cell-based or functional assay.
Experiment [2] deals with T1, hGH binding protein provided by the kit (Active Bioactive Human Growth Hormone ELISA DSL-10-11100, Diagnostic … (UniProt P10912 19-256)).
T1 sequence (looked up): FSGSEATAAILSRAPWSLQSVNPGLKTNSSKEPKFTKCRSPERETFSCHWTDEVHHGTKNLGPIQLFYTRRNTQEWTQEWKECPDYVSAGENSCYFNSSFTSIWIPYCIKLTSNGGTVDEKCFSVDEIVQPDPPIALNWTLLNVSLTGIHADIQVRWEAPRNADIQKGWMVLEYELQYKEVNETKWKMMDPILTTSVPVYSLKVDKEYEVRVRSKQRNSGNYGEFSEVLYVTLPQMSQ
Briefly: bioactivity ELISA based on binding to the kit's hGH binding protein (DSL-10-11100). Background: In an ELISA, binding on a coated surface is turned into a signal by an enzyme label.

Regarding RX3-EGF fusion protein, the % proliferation with respect to Deprived cells (Mean), radioactive thymidine incorporation, 1.2 ng/mL in experiment [1] was 146%.

B1: RX3 protein without a fusion partner (other)
chain: THTSGGCGCQPPPPVHLPPPVHLPPPVHLPPPVHLPPPVHLPPPVHLPPPVHVPPPVHLPPPPCHYPTQPPRPQPHPQPHPCPCQQPHPSPCQY
notes: also called control RX3 RPBLA preparations; isolated RX3 protein
Consider B1, for which, in experiment [2], the binding result is reported as “no binding”.
